Results reported in patent US20110300138A1 (published 2011).

Columns and labels:
Assay in all cases: cell-based or functional assay
[1] = biological target: TSHR with Lys250 mutated to Ala (expressed in CHO cells) (human) (UniProt P16473)
[2] = biological target: wild type TSHR expressed in CHO cells (human) (UniProt P16473)
[3] = biological target: human TSHR with Glu251 mutated to Ala expressed in CHO cells (human) (UniProt P16473)
[4] = biological target: wild type TSHR expressed in CHO cells (human) (UniProt P16473); remark: listed apart in the source
[5] = biological target: human TSH receptor (full length, wild type) expressed on CHO cells (human) (UniProt P16473)

5B3 IgG (human monoclonal antibody to GAD, negative control for K1-70)
% inhibition of TSH stimulation; 5B3 10 µg/mL; Experiment 1 [1]: 0%
% inhibition of TSH stimulation; 5B3 10 µg/mL; Experiment 2 [1]: 14%
% inhibition of TSH stimulation; 5B3 100 µg/mL; Experiment 1 [1]: 0%
% inhibition of TSH stimulation; 5B3 100 µg/mL; Experiment 2 [1]: 1%
Cyclic AMP produced; 5B3 10 µg/mL + TSH 3 ng/mL; Experiment 1 [1]: 67.7 pmol/mL
Cyclic AMP produced; 5B3 10 µg/mL + TSH 3 ng/mL; Experiment 2 [1]: 47.1 pmol/mL
Cyclic AMP produced; 5B3 100 µg/mL + TSH 3 ng/mL; Experiment 1 [1]: 66.1 pmol/mL
Cyclic AMP produced; 5B3 100 µg/mL + TSH 3 ng/mL; Experiment 2 [1]: 54.7 pmol/mL
Mutated/wild type (%) of cyclic AMP produced; 5B3 10 µg/mL + TSH 3 ng/mL; Experiment 1 [1]: 87%
Mutated/wild type (%) of cyclic AMP produced; 5B3 10 µg/mL + TSH 3 ng/mL; Experiment 2 [1]: 52%
Mutated/wild type (%) of cyclic AMP produced; 5B3 100 µg/mL + TSH 3 ng/mL; Experiment 1 [1]: 83%
Mutated/wild type (%) of cyclic AMP produced; 5B3 100 µg/mL + TSH 3 ng/mL; Experiment 2 [1]: 62%
% inhibition of TSH stimulation; 5B3 10 µg/mL; Experiment 1 [2]: 0.1%
% inhibition of TSH stimulation; 5B3 10 µg/mL; Experiment 2 [2]: 0%
% inhibition of TSH stimulation; 5B3 100 µg/mL; Experiment 1 [2]: 0%
% inhibition of TSH stimulation; 5B3 100 µg/mL; Experiment 2 [2]: 0%
Cyclic AMP produced; 5B3 10 µg/mL + TSH 3 ng/mL; Experiment 1 [2]: 77.8 pmol/mL
Cyclic AMP produced; 5B3 10 µg/mL + TSH 3 ng/mL; Experiment 2 [2]: 90.6 pmol/mL
Cyclic AMP produced; 5B3 100 µg/mL + TSH 3 ng/mL; Experiment 1 [2]: 79.9 pmol/mL
Cyclic AMP produced; 5B3 100 µg/mL + TSH 3 ng/mL; Experiment 2 [2]: 87.5 pmol/mL
% inhibition of TSH stimulation; 5B3 10 µg/mL [3]: 10%
% inhibition of TSH stimulation; 5B3 100 µg/mL [3]: 0%
Cyclic AMP produced; 5B3 10 µg/mL + TSH 3 ng/mL [3]: 68.7 pmol/mL
Cyclic AMP produced; 5B3 100 µg/mL + TSH 3 ng/mL [3]: 76.7 pmol/mL
Mutated/wild type (%) of cyclic AMP produced; 5B3 10 µg/mL + TSH 3 ng/mL [3]: 74%
Mutated/wild type (%) of cyclic AMP produced; 5B3 100 µg/mL + TSH 3 ng/mL [3]: 89%
% inhibition of TSH stimulation; 5B3 10 µg/mL [4]: 5%
% inhibition of TSH stimulation; 5B3 100 µg/mL [4]: 11%
Cyclic AMP produced; 5B3 10 µg/mL + TSH 3 ng/mL [4]: 92.9 pmol/mL
Cyclic AMP produced; 5B3 100 µg/mL + TSH 3 ng/mL [4]: 86.3 pmol/mL

native human TSH (from UniProt P01215 25-116; P01222 21-132) (ligand)
Cyclic AMP concentration in hypotonic medium; 100 ng/mL hTSH alone [5]: 56.8 pmol/mL
Cyclic AMP concentration in isotonic medium; 100 ng/mL hTSH alone [5]: 42.3 pmol/mL
